System: MS2 coat protein
Assay: apparent KD of MS2 coat protein; designed switch direction (-1 OFF switch, 1 ON switch): -1; higher = weaker reporter binding
Method in brief: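 Designed RNA switches with common flanks were made on Illumina chips by stalled E. coli RNA polymerase. Titration with SNAP-549-labelled MS2 coat protein doubled from 0.7 or 1.5 nM up to 3 µM. Apparent KD is each design's median over clusters after curve-fitting normalised fluorescence.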

[1] = input ligand: microRNA oligo, concentration not stated
[2] = Eterna round: R95, input ligand: microRNA oligo, concentration not stated
[3] = Eterna round: R95, input ligand: FMN 200 uM
[4] = Eterna round: R95, input ligand: none

Row | Sequence | apparent KD of MS2 coat protein (input ligand: FMN 200 uM) [nM] | apparent KD of MS2 coat protein (input ligand: none) [nM] | apparent KD of MS2 coat protein [2] [nM] | also measured
1 | CUUGAGCAGGUAGGAUAUACGAUGUGUCGGCGAGUAGAAGGACCUGCGAUCCACUUGAGGAUCACCCAAGUUCGCAGGAGAACA [Mutated MS2 EX1.18] (Eterna round: R96, puzzle: Exclusion NG 1) | 103 | 33.4 | – | apparent KD of MS2 coat protein [1]: 22 nM
2 | CUUGUGUAAGGAUAUCGAGUAGAACGCUCGAGUUCUGAGCUCGAGAAGGUACAUGAGGAUCACCCAUGUUAAAA [Atusgete] (puzzle: Exclusion 4) | – | – | 42.2 | –
3 | CUUGUUUAUGUAGGAUAUGCCUGGCGUGCCUUUGCAGAAGGACAUGAGGAUCACCCAUGUAACAUGAGGCUCACCCUUGUCGCA [salish99_ExNG1_r04_115] (Eterna round: R96, puzzle: Exclusion NG 1) | 183 | 162 | – | apparent KD of MS2 coat protein [1]: 62 nM
4 | CUUGUUUAUGUAGGAUAUGCCUGGCGUGCCUUUGCAGAAGGACAUGAGGAUCACCCAUGUACAUGAGGAUCACCCAUGUUCGCA [salish99_ExNG1_r04_102] (Eterna round: R96, puzzle: Exclusion NG 1) | 836 | 825 | – | apparent KD of MS2 coat protein [1]: 455 nM
5 | CUUUAGCUAGGAUAUACAUGAGGAUCACCCAUGUUAGCGGCCAAUUGGACCGCGGGUUGUAGAAGGAGCAUUAA [Atantiza] (puzzle: Exclusion 3) | – | – | 29.8 | –
6 | CUUUCGUGAGGAUAUCAGUAGUAAAUAAAUAAAAUUACUACUGAGAAGGCACAUGAGGAUCACCCAUGUUCCUU [salish99_ex3_r3_095] (puzzle: Exclusion 4) | – | – | 12.9 | –
7 | CUUUUGUGAGGAUAUCAGUAGUAAAUAAAUAAAAUUACUUCUGAGAAGGCACAUGAGGAUCACCCAUGUUCCUC [salish99_ex3_r3_087] (puzzle: Exclusion 4) | – | – | 35.7 | –
8 | CUUUUGUGAGGAUAUCAGUAGUAAAUAAAUAAAUUUACUACUGAGAAGGCACAUGAGGAUCACCCAUGUUCCUC [salish99_ex3_r3_084] (puzzle: Exclusion 4) | – | – | 45.4 | –
9 | CUUUUGUGAGGAUAUCAGUAGUAAUACAAUAGUAUUACUACUGAGAAGGCACAUGAGGAUCACCCAUGUUCUUC [Ex4 344 Omei mod 2] (puzzle: Exclusion 4) | – | – | 23.2 | –
10 | CUUUUGUGAGGAUAUCAGUAGUAAUACAAUAGUAUUACUAUUGAGAAGGCACAUGAGGAUCACCCAUGUUCCUC [Ex4 344 Omei mod 6] (puzzle: Exclusion 4) | – | – | 38 | –
11 | CUUUUGUGAGGAUAUCAGUAGUAAUAUAAUAGUAUUACUACUGAGAAGGCACAUGAGGAUCACCCAUGUUCCUC [Ex4 344 Omei mod 8] (puzzle: Exclusion 4) | – | – | 27.9 | –
12 | CUUUUGUGAGGAUAUCAGUAGUAGAACAAUAGUACUACUACUGAGAAGGCACAUGAGGAUCACCCAUGUUUCUC [Fiskers Ex 4 Super stable 44 mod 4] (puzzle: Exclusion 4) | – | – | 58.7 | –
13 | CUUUUGUGAGGAUAUCAGUAGUUAAUAAAUAAAAUUACUACUGAGAAGGCACAUGAGGAUCACCCAUGUUCCUC [salish99_ex3_r3_075] (puzzle: Exclusion 4) | – | – | 39.4 | –
14 | CUUUUGUGAGGAUAUUAAUAGUAAGUAAAUAAAAUUAUUACUAAGAAGGCACAUGAGGAUCACCCAUGUUCCUC [EX4 #82] (Eterna round: R97, puzzle: Exclusion 4) | 102 | 63.4 | – | –
15 | CUUUUGUGAGGAUAUUAGUAGUAAAUAAAUAAAAUUACUUCUGAGAAGGCACAUGAGGAUCACCCAUGUUCCUC [salish99_ex4_r3_063] (puzzle: Exclusion 4) | – | – | 36.9 | –
16 | CUUUUGUGAGGAUAUUAUUAGUAAAUAAAUAAAAUUACUACUGAGAAGGCACAUGAGGAUCACCCAUGUUCCUC [salish99_ex4_r3_048] (puzzle: Exclusion 4) | – | – | 28.8 | –
17 | GAAAACGAAGAGGAUAUUUGAUAUCAUAGCUUCAAAGAAGGCUUCACAUGAGGAUCACCCAUGUGAUCUUCAAU [Mat - Exclusion 6 - JL Mod - D19] (Eterna round: R97, puzzle: Exclusion 6) | 116 | 23.8 | – | –
18 | GAAAACGCAAAGGAUAUUACAGAUCAAAGCUGCUGAGAAGGUUGCACAUGAGGAUCACCCAUGUGGUCUUUCAA [Mod of Quesina 18 - Jieux - Exclusion 6] (Eterna round: R97, puzzle: Exclusion 6) | 213 | 27.3 | – | –
19 | GAAAACGUAGGAUAUUAAUACUUAGACAUGAGGAUCACCCAUGUUUGGUGGGUUUAAGAAUGAGAAGGGCGAUGAA [EX5 #7] (Eterna round: R97, puzzle: Exclusion 5) | 222 | 189 | – | –
20 | GAAAACUCAGGAUAUGCGUGAGAAAACUUGAGGAUCACCCAAGUGUGGUCCCGAUCUAAAGCAGAAGGGAGCAAAA [Lebidiraus] (Eterna round: R97, puzzle: Exclusion 5) | 1770 | 353 | – | –
21 | GAAAAGAACGAGGAUAUGUUGGUGCAUACACUUGCAGAAGGCGUUACUUGAGGAUCACCCAAGUGAGACCGAGU [Cetelege] (Eterna round: R97, puzzle: Exclusion 6) | 273 | 124 | – | –
22 | GAAAAGAGAGGAUAUACAAGAAGAAAAGAAAAGAAAAGAAAACAUGAGGAUCACCCAUGUAGAAGGCUCAAAAG [Default title] (puzzle: Exclusion 2) | – | – | 12.7 | apparent KD of MS2 coat protein [3]: 18.2 nM; apparent KD of MS2 coat protein [4]: 20.3 nM
23 | GAAAAGGUAGGAUAUACGAAAAAAAAGGGAAGAAAAAAAACACAUGAGGAUCACCCAUGUAGAAGGACCAAAAG [salish99_ex2_r3_064] (puzzle: Exclusion 2) | – | – | 21.6 | apparent KD of MS2 coat protein [3]: 34.4 nM; apparent KD of MS2 coat protein [4]: 20.6 nM
24 | GAAAAGGUAGGAUAUACGAAAAAAAAGGGUAGAAAAAAUACACAUGAGGAUCACCCAUGUAGAAGGACCAAAAG [salish99_ex2_r3_073] (Eterna round: R96, puzzle: Exclusion 2) | – | – | – | apparent KD of MS2 coat protein [1]: 26.7 nM
25 | GAAAAGGUAGGAUAUACGAAAAAAAAGGGUAGAAAAAAUACACAUGAGGAUCACCCAUGUAGAAGGACCAAAAG [salish99_ex2_r3_073] (puzzle: Exclusion 2) | – | – | 23.9 | apparent KD of MS2 coat protein [3]: 138 nM; apparent KD of MS2 coat protein [4]: 29.7 nM
26 | GAAAAGGUAGGAUAUACGAAAAAAAAGGGUAGAUAAAAAACACAUGAGGAUCACCCAUGUAGAAGGACCAAAAG [salish99_ex2_r3_078] (puzzle: Exclusion 2) | – | – | 41.8 | apparent KD of MS2 coat protein [3]: 101 nM; apparent KD of MS2 coat protein [4]: 29.3 nM

From the supplement of paper PMC9170038
